Measurements: patent US7611721B1, “Adjuvant combination formulations” (priority 2000, dated 2009)

B1: rIL-12: Recombinantly expressed murine IL-12 (Genetics Institute) (protein, UniProt P43431 23-215; P43432 23-335, looked up)
Interleukin-12 subunit alpha: RVIPVSGPARCLSQSRNLLKTTDDMVKTAREKLKHYSCTAEDIDHEDITRDQTSTLKTCLPLELHKNESCLATRETSSTTRGSCLPPQKTSLMMTLCLGSIYEDLKMYQTEFQAINAALQNHNHQQIILDKGMLVAIDELMQSLNHNGETLRQKPPVGEADPYRVKMKLCILLHAFSTRVVTINRVMGYLSSA
Interleukin-12 subunit beta: MWELEKDVYVVEVDWTPDAPGETVNLTCDTPEEDDITWTSDQRHGVIGSGKTLTITVKEFLDAGQYTCHKGGETLSHSHLLLHKKENGIWSTEILKNFKNKTFLKCEAPNYSGRFTCSWLVQRNMDLKFNIKSSSSSPDSRAVTCGMASLSAEKVTLDQRDYEKYSVSCQEDVTCPTAEETLPIELALEARQQNKYENYSTSFFIRDIIKPDPPKNLQMKPLKNSQVEVSWEYPDSWSTPHSYFSLKFFVRIQRKKEKMKETEEGCNQKGAFLVEKTSTEVQCKGGNVCVQAQDRYYNSSCSKWACVPCRVRS
B2: GM-CSF: Recombinant murine granulocyte macrophage colony stimulating factor (protein, UniProt P01587 18-141, looked up)
Granulocyte-macrophage …: APTRSPITVTRPWKHVEAIKEALNLLDDMPVTLNEEVEVVSNEFSFKKLTCVQTRLKIFEQGLRGNFTKLKGALNMTASYYQTYCPPTPETDCETQVTTYADFIDSLKTFLTDIPFECKKPGQK

Key:
[1] = system: spleen cells; type: cell-based, Balb/c mice; details: for Spleen cell proliferation index normalized to ConA, Con A 5 μg/ml / Spleen cell proliferation index normalized to ConA, HIV Peptide 1.1 μg/ml / Spleen cell proliferation index normalized to ConA, HIV Peptide 3.3 μg/ml / Spleen cell proliferation index normalized to ConA, HIV Peptide 10 μg/ml / Spleen cell proliferation index normalized to ConA, Lysozyme 10 μg/ml: Experiment 2, 96 hours culture; for Spleen cell proliferation index normalized to ConA, HIV Peptide 1.1 μg/ml / Spleen cell proliferation index normalized to ConA, HIV Peptide 3.3 μg/ml / Spleen cell proliferation index normalized to ConA, HIV Peptide 10 μg/ml / Spleen cell proliferation index normalized to ConA, Lysozyme 10 μg/ml: values in parentheses are less than unstimulated cells; for Spleen cell proliferation, Con A 1 μg/ml / Spleen cell proliferation, HIV Peptide 1.1 μg/ml / Spleen cell proliferation, HIV Peptide 3.3 μg/ml / Spleen cell proliferation, HIV Peptide 10 μg/ml: Experiment 1, immunized days 0 and 28, culture day 56, 96 hours
Description: (§1) For proliferation assays and in vitro cytokine analysis, spleen cells were obtained from mice at the indicated time points. Single cell suspensions were prepared from pools of 3-5 mice as indicated in Results. For proliferation and cytokine analysis, cells were suspended in round bottom 96 well culture plates precoated overnight with HIV peptide antigens, control proteins, or RPMI-10 only. Spleen cells were added at 5×10^5 cells/well using culture medium having 2× supplements. Cell culture supernatants were harvested from triplicate wells for cytokine analysis three or six days after culture initiation. Immediately after supernatant harvest, cultures were pulsed with ^3H-thymidine for 18-24 hours, and harvested to quantify cell proliferation.
Groups of five Balb/c female mice were immunized with 25 μg T1SP10MN(A) (−Cys) and the indicated adjuvants on days 0 and 28. Spleen cells were established in culture on day 56, and harvested for measurement of ^3H-thymidine incorporation 96 hours later. Mice were immunized with 50 ng IL-12, […], 50 μg MPL™ in an aqueous formulation, or as a stable emulsion with 2% SE. Data are presented as the delta cpm values as compared to proliferation values measured from cells grown in culture without stimulation.
Cells were cultured for a total of 96 hours. ^3H-thymidine was added to cultures for the last 18 hours. Data are presented as a proliferation index normalized to cells stimulated in culture with ConA ([mean cpm Antigen/mean cpm ConA]−[mean cpm medium/mean cpm ConA])×100. As a result, cells cultured in medium have a background proliferation of 0. Proliferation values less than cells grown in culture unstimulated are in parentheses.

[2] = system: spleen cells; test: Secretion of IL-4 by spleen cells (ELISA); type: cell-based, Balb/c mice; details: for Secretion of IL-4, Con A 5 μg/ml / Secretion of IL-4, HIV Peptide 1.1 μg/ml / Secretion of IL-4, HIV Peptide 3.3 μg/ml / Secretion of IL-4, HIV Peptide 10 μg/ml: Experiment 2, 96 hours culture, after subtraction of lysozyme value; for Secretion of IL-4, HIV Peptide 1.1 μg/ml / Secretion of IL-4, HIV Peptide 3.3 μg/ml / Secretion of IL-4, HIV Peptide 10 μg/ml: bd = below limit of detection; for Secretion of IL-4, Con A 1 μg/ml: Experiment 1, Three Day Cultures, detection limit 22 Units/ml
Description: as §1
For cytokine analysis, cell culture supernatants were added to wells coated with BVD6-11B11 (for anti-IL4), or R4-6A2 (for interferon-gamma). After incubation and washing, wells were developed using biotin-labeled BVD6-24G2 (for IL4) or XMG 1.2 (for interferon-gamma). The concentration of cytokines was determined using a standard curve prepared from recombinant murine interferon-gamma or interleukin-4. All cytokine reagents were purchased from Pharmingen (San Diego, Calif.).
Interleukin-4 secreted into culture by spleen cells stimulated with 25 μg T1SP10MN(A) (−Cys) was measured. Spleen cells were harvested from pools of five Balb/c female mice and cultured with the indicated antigenic stimuli (50 ng IL-12, 10 μg GM-CSF, 50 μg MPL™ as indicated) for either three or six days. Interleukin-4 levels were determined by ELISA, and compared to a standard having a known concentration. Blank wells indicate that the assay could not detect Interleukin-4 from those culture conditions. The lower limit of detection sensitivity was 22 Units/ml.
Cells were cultured for a total of 96 hours. Cell culture supernatants were analyzed for IL-4 by ELISA. All values were after subtraction from those determined from supernatants of cells stimulated with 10 μg of an irrelevant protein (lysozyme). Results which were below the limit of detection, after subtraction from stimulation induced with lysozyme are indicated as “bd”. The adjuvants were 40 ng IL-12, 10 μg GM-CSF and 50 μg MPL™.

[3] = system: T1SP10MN(A) (−Cys); details: Experiment 3, 14 days after second immunization; for Reciprocal anti-HIV peptide IgG (GMT) endpoint titer: individual Swiss-Webster mice; for Reciprocal anti-HIV peptide IgG1 (pool) endpoint titer / Reciprocal anti-HIV peptide IgG2a (pool) endpoint titer: pooled serum Swiss-Webster
Description: (§2) The protocols of Experiment 2 were followed, with Swiss-Webster mice used instead of Balb/c mice. Only reciprocal anti-peptide IgG endpoint titers and vaginal lavage endpoint reciprocal endpoint IgG and IgA antibody titers were measured in this experiment.
Reciprocal anti-T1SP10MN(A) (−Cys) IgG endpoint titers were measured from geometric means from individual Swiss-Webster mice (GMT), obtained 14 days after the second immunization. IgG1 and IgG2a subclass endpoint titers were also measured from pooled serum. For recipients of Freund's adjuvants, mice were primed with peptide emulsified in CFA, and boosted with IFA. […] Aqueous MPL™ was delivered at 50 μg per dose. Recombinant murine IL-12 was delivered at 40 ng/mouse. Recombinant murine GM-CSF was delivered at 10 μg/mouse.

[4] = system: T1SP10MN(A) (−Cys); details: Experiment 3; pooled, n=5 Swiss-Webster; 15 days after secondary immunization
Description: as §2
Aqueous MPL™ was delivered at 50 μg per dose. Recombinant murine IL-12 was delivered at 40 ng/mouse. Recombinant murine GM-CSF was delivered at 10 μg/mouse.

| Molecule | Spleen cell proliferation index normalized to ConA, Con A 5 μg/ml [1] | Spleen cell proliferation index normalized to ConA, HIV Peptide 1.1 μg/ml [1] | Spleen cell proliferation index normalized to ConA, HIV Peptide 3.3 μg/ml [1] | Spleen cell proliferation index normalized to ConA, HIV Peptide 10 μg/ml [1] | Spleen cell proliferation index normalized to ConA, Lysozyme 10 μg/ml [1] | Secretion of IL-4, Con A 5 μg/ml [2] [pg/mL] | Secretion of IL-4, HIV Peptide 1.1 μg/ml [2] [pg/mL] | Secretion of IL-4, HIV Peptide 3.3 μg/ml [2] | Secretion of IL-4, HIV Peptide 10 μg/ml [2] | Reciprocal anti-HIV peptide IgG (GMT) endpoint titer [3] | Reciprocal anti-HIV peptide IgG1 (pool) endpoint titer [3] | Reciprocal anti-HIV peptide IgG2a (pool) endpoint titer [3] | Vaginal lavage reciprocal anti-HIV peptide IgA endpoint titer [4] | Vaginal lavage reciprocal anti-HIV peptide IgG endpoint titer [4] | Spleen cell proliferation, Con A 1 μg/ml [1] | Spleen cell proliferation, HIV Peptide 1.1 μg/ml [1] | Spleen cell proliferation, HIV Peptide 3.3 μg/ml [1] | Spleen cell proliferation, HIV Peptide 10 μg/ml [1] | Secretion of IL-4, Con A 1 μg/ml [2] [Units/ml] |
| --- | --- | --- | --- | --- | --- | --- | --- | --- | --- | --- | --- | --- | --- | --- | --- | --- | --- | --- | --- |
| 3-O-deacylated monophosphoryl lipid A [MPL ™] | 99.2 | 0.5 | 1.4 | 1.0 | 0.4 | 286 | 17 | bd | 5 pg/mL | 1,960 | <1000 | <1000 | <10 | <10 |  |  |  |  |  |
| B1 | 99.1 | 0.5 | 0.2 | 0.2 | 0.2 | 411 | 15 | bd | bd | 500 | <1000 | <1000 | <10 | <10 | 42,612 delta cpm | 308 delta cpm | 692 delta cpm | 809 delta cpm | 156 |
| B2 | 99.0 | 1.6 | 2.7 | 6.8 | 0.1 | 226 | 36 | 9 pg/mL | bd | 500 | <1000 | <1000 | <10 | <10 | 55,578 delta cpm | 14,249 delta cpm | 19,784 delta cpm | 25,821 delta cpm | 159 |
